The values below come from patent US20180038860A1 (published 2018).

Like-named read-outs stand apart in the source and are kept apart here. Bridge positions count the residues as written; N and C are the ends. Side chains are listed from the residue outwards. * marks the point of attachment. Biotin = O=C1N[C@H]2[C@H](CS[C@H]2CCCCC(=O)*)N1; AEEA = NCCOCCOCC(=O)O

Among the targets are hCCR2b (human) (UniProt P41597); hCCR9 (human) (UniProt P51686); hCCR7 (human) (UniProt P32248).
Holding throughout (assay): cell-based or functional assay
In another assay the target is T1, hCCR6 (human) (UniProt P51684).
T1 sequence (looked up): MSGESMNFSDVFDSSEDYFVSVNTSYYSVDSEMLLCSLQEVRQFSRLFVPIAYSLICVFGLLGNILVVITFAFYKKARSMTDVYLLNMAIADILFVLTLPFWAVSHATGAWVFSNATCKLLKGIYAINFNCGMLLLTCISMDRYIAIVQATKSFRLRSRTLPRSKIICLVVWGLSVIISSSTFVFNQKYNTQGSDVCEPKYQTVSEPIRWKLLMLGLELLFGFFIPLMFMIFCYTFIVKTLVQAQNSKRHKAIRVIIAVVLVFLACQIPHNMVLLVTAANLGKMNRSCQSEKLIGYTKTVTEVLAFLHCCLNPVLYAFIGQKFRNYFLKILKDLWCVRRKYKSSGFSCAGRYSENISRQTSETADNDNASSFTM

For assay [1], the target named is T2, CCR6 on lymphocytes in blood of healthy donors (human) (UniProt P51684).
T2 sequence (looked up): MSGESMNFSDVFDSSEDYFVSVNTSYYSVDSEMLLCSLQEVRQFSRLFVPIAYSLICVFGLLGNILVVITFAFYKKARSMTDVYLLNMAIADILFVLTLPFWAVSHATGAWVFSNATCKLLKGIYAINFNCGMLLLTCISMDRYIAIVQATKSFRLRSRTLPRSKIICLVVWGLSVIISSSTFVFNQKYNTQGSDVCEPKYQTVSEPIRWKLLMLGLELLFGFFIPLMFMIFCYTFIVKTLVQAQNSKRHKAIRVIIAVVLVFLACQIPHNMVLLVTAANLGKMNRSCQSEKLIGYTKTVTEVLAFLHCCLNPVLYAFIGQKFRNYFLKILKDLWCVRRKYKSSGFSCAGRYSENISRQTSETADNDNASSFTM

Assay [2] concerns the target hCXCR3 (human) (UniProt P49682).
A further assay deals with T3, hCCR4 (human, UniProt P51679 1-360).
T3 sequence (looked up): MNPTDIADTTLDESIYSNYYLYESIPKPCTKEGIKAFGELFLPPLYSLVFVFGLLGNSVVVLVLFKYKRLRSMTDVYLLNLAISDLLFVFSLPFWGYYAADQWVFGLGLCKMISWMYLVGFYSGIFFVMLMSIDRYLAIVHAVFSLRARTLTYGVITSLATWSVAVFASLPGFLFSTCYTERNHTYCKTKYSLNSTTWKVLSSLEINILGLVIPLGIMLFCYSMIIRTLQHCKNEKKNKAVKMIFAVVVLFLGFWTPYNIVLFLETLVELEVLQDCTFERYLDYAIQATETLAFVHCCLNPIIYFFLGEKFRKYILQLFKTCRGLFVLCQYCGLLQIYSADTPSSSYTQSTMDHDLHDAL

The next assay has as its target T4, hCCR10 (human, UniProt P46092 1-362).
T4 sequence (looked up): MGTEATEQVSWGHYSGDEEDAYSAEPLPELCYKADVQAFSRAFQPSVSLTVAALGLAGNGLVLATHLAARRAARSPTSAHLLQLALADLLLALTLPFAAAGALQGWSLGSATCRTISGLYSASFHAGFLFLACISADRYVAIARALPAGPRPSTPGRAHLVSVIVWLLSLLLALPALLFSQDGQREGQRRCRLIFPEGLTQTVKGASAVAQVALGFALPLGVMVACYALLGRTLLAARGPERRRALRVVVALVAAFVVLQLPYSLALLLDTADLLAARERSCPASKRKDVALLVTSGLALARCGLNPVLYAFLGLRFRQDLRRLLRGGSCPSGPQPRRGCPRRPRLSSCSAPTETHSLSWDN

In assay [3] the target is hCXCR3 (human) (UniProt P49682). This is another data set of the same source.
Sequence of hCXCR3 (human) (P49682 whole entry): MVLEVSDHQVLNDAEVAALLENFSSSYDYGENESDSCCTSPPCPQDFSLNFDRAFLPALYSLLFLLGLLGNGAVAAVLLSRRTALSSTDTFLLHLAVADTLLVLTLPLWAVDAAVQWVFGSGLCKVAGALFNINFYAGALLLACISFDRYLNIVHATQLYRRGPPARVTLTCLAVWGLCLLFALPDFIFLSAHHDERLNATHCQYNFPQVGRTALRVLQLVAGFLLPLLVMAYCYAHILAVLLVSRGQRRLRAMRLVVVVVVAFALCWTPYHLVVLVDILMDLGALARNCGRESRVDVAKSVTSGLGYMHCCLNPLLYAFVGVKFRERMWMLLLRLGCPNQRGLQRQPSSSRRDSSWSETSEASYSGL

Sequence of hCCR9 (human) (P51686 whole entry): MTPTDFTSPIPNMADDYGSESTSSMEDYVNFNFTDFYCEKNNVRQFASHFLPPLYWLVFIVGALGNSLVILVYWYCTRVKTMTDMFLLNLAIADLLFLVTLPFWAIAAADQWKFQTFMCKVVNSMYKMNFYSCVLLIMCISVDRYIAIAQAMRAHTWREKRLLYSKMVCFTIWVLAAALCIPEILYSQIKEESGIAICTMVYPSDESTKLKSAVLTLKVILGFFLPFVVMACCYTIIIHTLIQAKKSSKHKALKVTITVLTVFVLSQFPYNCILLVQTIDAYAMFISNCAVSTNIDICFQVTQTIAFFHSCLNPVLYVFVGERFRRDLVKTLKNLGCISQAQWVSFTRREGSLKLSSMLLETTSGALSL
Sequence of hCCR2b (human) (P41597 other isoform, or with tags, fused parts or gaps limits assumed): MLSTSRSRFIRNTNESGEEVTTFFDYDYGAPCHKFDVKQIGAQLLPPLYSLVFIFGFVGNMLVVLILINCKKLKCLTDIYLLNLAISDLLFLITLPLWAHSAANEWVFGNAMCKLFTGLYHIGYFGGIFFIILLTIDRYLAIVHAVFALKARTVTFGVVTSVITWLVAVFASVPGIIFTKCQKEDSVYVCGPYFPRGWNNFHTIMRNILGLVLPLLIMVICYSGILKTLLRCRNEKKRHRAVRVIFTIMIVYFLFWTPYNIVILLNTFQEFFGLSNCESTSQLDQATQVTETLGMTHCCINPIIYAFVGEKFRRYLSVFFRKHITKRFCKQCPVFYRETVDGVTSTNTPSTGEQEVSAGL
Sequence of hCCR7 (human) (P32248 25-378 limits assumed): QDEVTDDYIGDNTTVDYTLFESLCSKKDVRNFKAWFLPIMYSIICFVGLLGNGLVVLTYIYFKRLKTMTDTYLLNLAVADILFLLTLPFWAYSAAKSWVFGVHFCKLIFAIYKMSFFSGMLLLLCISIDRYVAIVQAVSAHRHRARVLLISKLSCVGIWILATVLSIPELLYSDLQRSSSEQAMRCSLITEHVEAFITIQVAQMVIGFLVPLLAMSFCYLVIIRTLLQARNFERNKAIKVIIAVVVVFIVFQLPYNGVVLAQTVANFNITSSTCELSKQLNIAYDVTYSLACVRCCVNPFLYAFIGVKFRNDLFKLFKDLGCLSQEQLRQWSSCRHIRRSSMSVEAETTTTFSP

The molecule “recombinant native MCP-2 (from UniProt P80075 24-99) (ligand)” showed an EC50, Aequorin assay (partial agonist) in the assay with hCCR2b (human) of 23.5 nM.

“biotinTECK(Met to Nleu substitution) (CCL25), derivatised at the ε-amino side chain functionality of Lys72 with PEG-Biotin (from UniProt O15444 25-97) (ligand)” returned an EC50, Aequorin assay (agonist activity) with hCCR9 (human) of 63.6 nM.

“recombinant native MIP-3α (from UniProt P78556 27-96) (ligand)” gave an EC50, Aequorin assay (agonist activity) in the assay with hCCR6 (human) of 1 nM.

In the assay with hCCR7 (human), “recombinant native MIP-3β (from UniProt Q99731 22-98) (ligand)” returned an EC50, Aequorin assay (agonist activity) of 1.6 nM.

“biotinylated MIP-3alpha coupled matrix (from UniProt P78556 27-96) (ligand)” showed a reduction of CCR6-expressing cells after column passage (flow cytometry) in [1] of less than 15%.

“recombinant native IP-10 (from UniProt P02778 22-98) (ligand)” came in with an EC50, Aequorin assay (agonist activity) with hCXCR3 (human) [2] of 4.4 nM.

In the assay with hCCR4, “recombinant native TARC (from UniProt Q92583 24-94) (ligand)” gave an EC50, Aequorin assay (agonist activity) of 2.6 nM.

In the assay with hCCR9 (human), “recombinant native TECK (from UniProt O15444 24-150) (ligand)” displayed an EC50, Aequorin assay (agonist activity) of 67.9 nM.

B1: biotinCTAC (CCL27), CTAC derivatised at the ε-amino side chain functionality of Lys(87) with PEG-Biotin (ligand)
chain: FLLPPSTACCTQLYRKPLSDKLLRKVIQVELQEADGDCHLQAFVLHLAQRSICIHPQNPSLSQWFEHQERKLHGTLPKLNFGMLRKK([AEEA-Biotin])G-OH
modifications: disulfide 10-53, 9-38; ends not checked; also: TFA salt
B1: in the assay with hCCR10, the “EC50, Aequorin assay (agonist activity)” value came out at 49.4 nM.

B2: biotinTARC (CCL17), TARC derivatised at the ε-amino side chain functionality of Lys(72) with PEG-Biotin (ligand)
chain: ARGTNVGRECCLEYFKGAIPLRKLKTWYQTSEDCSRDAIVFVTVQGRAICSDPNNKRVKNAVKYLQSLERSK([AEEA-Biotin])-NH2
modifications: disulfide 10-34, 11-50; ends not checked; also: TFA salt
B2: the “EC50, Aequorin assay (agonist activity)” value with hCCR4 was determined as 3.1 nM.

B3: recombinant native MDC (ligand, UniProt O00626 25-93, looked up)
chain: GPYGANMEDSVCCRDYVRYRLPLRVVKHFYWTSDSCPRPGVVLLTFRDKEICADPRVPWVKMILNKLSQ
Consider B3, for which the EC50, Aequorin assay (agonist activity) in the assay with hCCR4 is 3.6 nM.

B4: recombinant native ITAC (ligand, UniProt O14625 22-94, looked up)
chain: FPMFKRGRCLCIGPGVKAVKVADIEKASIMYPSNNCDKIEVIITLKENKGQRCLNPKSKQARLIIKKVERKNF
Regarding B4, in the assay with hCXCR3 (human) [3], the EC50, Aequorin assay (agonist activity) came to 0.7 nM.

B5: recombinant native CTAC (ligand, UniProt Q9Y4X3 25-112, looked up)
chain: FLLPPSTACCTQLYRKPLSDKLLRKVIQVELQEADGDCHLQAFVLHLAQRSICIHPQNPSLSQWFEHQERKLHGTLPKLNFGMLRKMG
As for B5, the EC50, Aequorin assay (agonist activity) with hCCR10 worked out at 33.5 nM.
